# Assay results published in publication doi:10.1101/2021.05.19.444868.
# Molecular target: trimeric post-fusion hMPV B2 F protein (trypsinized) (human metapneumovirus (hMPV), subgroup B2 | T4 bacteriophage)
# Experiment: SEC
substance,measurement,value
trimeric post-fusion hMPV B2 F protein (trypsinized) (natural protein),stoichiometry N,3
